Source: US20220332804A1 (CSL INNOVATION, published 2022)

Legend:
Assay in all cases: SPR, KD relative to WT C2;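 further: biacore SPR at 37 °C, anti-C2 mAbs captured via immobilised goat anti-human IgG, C2 alanine or serine surface mutants as analytes, 1:1 model fitted, double-referenced sensograms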
[1] = target: T1, human C2 F689A (human, UniProt P06681 21-752)
T1 sequence: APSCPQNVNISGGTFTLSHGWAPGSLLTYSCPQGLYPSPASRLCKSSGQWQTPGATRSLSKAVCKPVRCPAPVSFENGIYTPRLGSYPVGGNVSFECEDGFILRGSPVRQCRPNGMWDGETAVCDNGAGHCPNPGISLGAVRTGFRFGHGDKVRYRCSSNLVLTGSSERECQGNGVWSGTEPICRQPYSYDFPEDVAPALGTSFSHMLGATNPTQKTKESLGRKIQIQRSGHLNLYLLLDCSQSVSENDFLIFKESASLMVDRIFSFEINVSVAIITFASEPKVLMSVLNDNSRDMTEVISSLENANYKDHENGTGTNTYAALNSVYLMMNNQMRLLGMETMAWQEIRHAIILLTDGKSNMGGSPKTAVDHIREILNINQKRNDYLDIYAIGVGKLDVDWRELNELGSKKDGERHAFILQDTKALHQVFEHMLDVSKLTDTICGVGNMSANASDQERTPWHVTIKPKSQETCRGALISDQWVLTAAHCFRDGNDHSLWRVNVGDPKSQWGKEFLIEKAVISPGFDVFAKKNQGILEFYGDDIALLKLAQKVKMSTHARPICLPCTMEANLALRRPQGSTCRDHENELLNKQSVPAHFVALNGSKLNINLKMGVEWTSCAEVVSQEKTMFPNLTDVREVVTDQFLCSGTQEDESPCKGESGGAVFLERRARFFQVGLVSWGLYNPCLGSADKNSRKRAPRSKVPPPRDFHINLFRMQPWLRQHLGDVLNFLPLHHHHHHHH

[2] = target: T2, human C2 I320A (human, UniProt P06681 21-752)
T2 sequence: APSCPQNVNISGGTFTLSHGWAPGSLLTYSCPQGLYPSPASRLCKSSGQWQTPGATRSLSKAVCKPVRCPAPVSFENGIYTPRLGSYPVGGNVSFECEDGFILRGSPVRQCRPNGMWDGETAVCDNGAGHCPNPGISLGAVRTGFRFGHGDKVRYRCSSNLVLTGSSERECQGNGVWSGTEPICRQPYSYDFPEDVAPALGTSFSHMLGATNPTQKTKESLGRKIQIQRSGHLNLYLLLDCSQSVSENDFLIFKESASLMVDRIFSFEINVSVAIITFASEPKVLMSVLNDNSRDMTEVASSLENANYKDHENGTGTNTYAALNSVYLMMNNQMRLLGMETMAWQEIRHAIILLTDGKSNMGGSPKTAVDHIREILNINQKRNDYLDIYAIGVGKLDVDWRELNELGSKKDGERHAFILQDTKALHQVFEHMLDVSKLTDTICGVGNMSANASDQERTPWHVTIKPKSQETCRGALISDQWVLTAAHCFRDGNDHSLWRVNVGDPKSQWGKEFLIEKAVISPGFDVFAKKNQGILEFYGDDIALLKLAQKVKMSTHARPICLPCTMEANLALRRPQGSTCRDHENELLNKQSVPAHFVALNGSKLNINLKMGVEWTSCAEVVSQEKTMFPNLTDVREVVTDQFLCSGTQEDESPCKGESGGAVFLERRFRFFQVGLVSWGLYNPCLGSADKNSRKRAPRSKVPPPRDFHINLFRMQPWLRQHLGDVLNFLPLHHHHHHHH

[3] = target: T3, human C2 G466A (human, UniProt P06681 21-752)
T3 sequence: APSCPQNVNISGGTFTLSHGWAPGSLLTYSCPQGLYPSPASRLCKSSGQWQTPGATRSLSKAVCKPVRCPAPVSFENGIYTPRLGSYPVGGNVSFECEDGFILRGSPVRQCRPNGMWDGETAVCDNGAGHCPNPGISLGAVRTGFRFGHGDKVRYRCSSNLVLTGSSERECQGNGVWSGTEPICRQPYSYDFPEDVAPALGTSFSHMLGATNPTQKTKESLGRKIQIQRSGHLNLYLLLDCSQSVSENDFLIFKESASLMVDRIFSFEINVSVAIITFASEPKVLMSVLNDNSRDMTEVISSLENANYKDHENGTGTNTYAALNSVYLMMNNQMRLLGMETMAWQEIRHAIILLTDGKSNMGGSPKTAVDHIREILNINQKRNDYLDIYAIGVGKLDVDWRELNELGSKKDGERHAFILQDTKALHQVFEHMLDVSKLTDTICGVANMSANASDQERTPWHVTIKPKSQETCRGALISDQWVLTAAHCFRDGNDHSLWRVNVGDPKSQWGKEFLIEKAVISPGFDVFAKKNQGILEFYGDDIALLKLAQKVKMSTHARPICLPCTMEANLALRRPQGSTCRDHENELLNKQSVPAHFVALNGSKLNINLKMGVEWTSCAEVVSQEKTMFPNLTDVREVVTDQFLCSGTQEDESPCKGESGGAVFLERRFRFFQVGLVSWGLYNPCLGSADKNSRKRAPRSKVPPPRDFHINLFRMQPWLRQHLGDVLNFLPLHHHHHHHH

[4] = target: T4, human C2 T647A (human, UniProt P06681 21-752)
T4 sequence: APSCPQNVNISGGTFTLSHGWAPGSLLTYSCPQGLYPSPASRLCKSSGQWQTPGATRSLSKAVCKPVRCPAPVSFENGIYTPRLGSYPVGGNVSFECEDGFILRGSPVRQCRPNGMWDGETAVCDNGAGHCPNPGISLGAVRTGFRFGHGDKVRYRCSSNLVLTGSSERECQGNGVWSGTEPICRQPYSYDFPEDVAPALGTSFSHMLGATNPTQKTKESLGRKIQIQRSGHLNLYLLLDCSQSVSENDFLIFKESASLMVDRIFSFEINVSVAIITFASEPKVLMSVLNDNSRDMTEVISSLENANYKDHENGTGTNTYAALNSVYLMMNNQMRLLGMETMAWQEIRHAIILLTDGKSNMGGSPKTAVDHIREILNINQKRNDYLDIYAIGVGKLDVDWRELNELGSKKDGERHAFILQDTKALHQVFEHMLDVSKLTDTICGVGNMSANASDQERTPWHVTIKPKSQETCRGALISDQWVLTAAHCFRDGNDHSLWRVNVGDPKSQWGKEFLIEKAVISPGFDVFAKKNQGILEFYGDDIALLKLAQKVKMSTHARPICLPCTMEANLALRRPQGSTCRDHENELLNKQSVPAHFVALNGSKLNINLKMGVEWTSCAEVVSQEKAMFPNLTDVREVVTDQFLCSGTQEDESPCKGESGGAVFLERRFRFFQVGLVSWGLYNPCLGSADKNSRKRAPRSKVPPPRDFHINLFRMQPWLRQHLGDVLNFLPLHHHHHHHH

B1: RF16-226 (antibody, human IgG4 S228P, lambda)
heavy: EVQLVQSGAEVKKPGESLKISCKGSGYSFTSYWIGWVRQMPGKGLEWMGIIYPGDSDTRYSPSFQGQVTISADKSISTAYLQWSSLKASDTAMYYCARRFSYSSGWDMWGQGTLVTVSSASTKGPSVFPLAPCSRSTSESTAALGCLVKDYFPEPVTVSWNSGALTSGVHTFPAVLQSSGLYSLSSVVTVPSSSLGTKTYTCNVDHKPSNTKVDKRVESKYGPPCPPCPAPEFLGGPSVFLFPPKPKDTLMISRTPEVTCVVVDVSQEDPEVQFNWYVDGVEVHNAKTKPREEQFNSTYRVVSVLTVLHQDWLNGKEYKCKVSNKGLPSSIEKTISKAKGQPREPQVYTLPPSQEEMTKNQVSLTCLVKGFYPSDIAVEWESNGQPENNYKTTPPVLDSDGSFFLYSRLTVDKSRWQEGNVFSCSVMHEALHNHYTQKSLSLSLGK
light: SYELTQPPSVSVSPGQTARITCSGDALTSKYVAWYQQKSGLAPLLVIYEDTRRPSGIPAKFSGSSSGSVATLTISGAHGDDEADYYCYSTDASGHQRVFGGGTKLTVLSQPKAAPSVTLFPPSSEELQANKATLVCLISDFYPGAVTVAWKADGSPVKAGVETTKPSKQSNNKYAASSYLSLTPEQWKSHRSYSCQVTHEGSTVEKTVAPTECS
notes: pH-dependent anti-C2 antibody from a phage display library; also called WT
For B1, the Fold diff [1] was 1 fold, the Fold diff [2] was 12 fold and the Fold diff [3] was 3 fold. It also gave a Fold diff [4] of 15 fold.
